Measurements from PMC3634753, “A Study of the Mechanism of the Chaperone-like Function of an scFv of Human Creatine Kinase by Computer Simulation” (PLoS ONE, 2013).

Legend:
Assay in all cases: peptide or protein array; 12-mer HCK peptides, each shifted by one residue, synthesized as spots on nitrocellulose membrane; incubated with purified scFv-A4 in MP buffer (30 mM Tris-HCl, pH 7.6, 170 mM NaCl, 6.4 mM KCl, 0.05% Tween 20, 5% sucrose) overnight at 4°C; bound scFv electro-transferred onto PVDF and detected with anti-V5 antibody
Conditions in all cases: both partners purified
[1] = target: T1, HCK peptide segment Asn5-Tyr14 (Homo sapiens, UniProt P06732)
T1 construct: human creatine kinase (HCK), segment Asn5-Tyr14 covered by the positive 12-mer spots A2-A6; Each spot held a 12-mer shifted by one residue; also called spots A2-A6; source: synthetic peptide, synthesized on nitrocellulose membrane as spots
T1 chain: NTHNKFKLNY

[2] = target: T2, HCK peptide segment Ser129-Lys138 (Homo sapiens, UniProt P06732)
T2 construct: human creatine kinase (HCK), segment Ser129-Lys138 covered by the positive 12-mer spots E3-E13; Each spot held a 12-mer shifted by one residue; also called spots E3-E13; source: synthetic peptide, synthesized on nitrocellulose membrane as spots
T2 chain: SRVRTGRSIK

[3] = target: T3, HCK peptide segment Lys170-Met179 (Homo sapiens, UniProt P06732)
T3 construct: human creatine kinase (HCK), segment Lys170-Met179 covered by the positive 12-mer spots F17-F21; Each spot held a 12-mer shifted by one residue; also called spots F17-F21; source: synthetic peptide, synthesized on nitrocellulose membrane as spots
T3 chain: KGKYYPLKSM

[4] = target: T4, HCK peptide segment Glu248-Leu257 (Homo sapiens, UniProt P06732)
T4 construct: human creatine kinase (HCK), segment Glu248-Leu257 covered by the positive 12-mer spots I3-I12; Each spot held a 12-mer shifted by one residue; also called spots I3-I12; source: synthetic peptide, synthesized on nitrocellulose membrane as spots
T4 chain: EVFRRFCVGL

[5] = target: T5, HCK peptide segment Lys265-Asn274 (Homo sapiens, UniProt P06732)
T5 construct: human creatine kinase (HCK), segment Lys265-Asn274 covered by the positive 12-mer spots I22-I29; Each spot held a 12-mer shifted by one residue; also called spots I22-I29; source: synthetic peptide, synthesized on nitrocellulose membrane as spots
T5 chain: KKAGHPFMWN

[6] = target: T6, HCK peptide segment Thr313-Thr322 (Homo sapiens, UniProt P06732)
T6 construct: human creatine kinase (HCK), segment Thr313-Thr322 covered by the positive 12-mer spots K5-K14; Each spot held a 12-mer shifted by one residue; also called spots K5-K14; source: synthetic peptide, synthesized on nitrocellulose membrane as spots
T6 chain: TRLRLQKRGT

Measured: binding result

B1: scFv-A4 (scFv, V domains shown)
VH: QVQLVQSGAEVKKPGSSVRVSCKASGGTFSSYAISWVRQAPGQGPEWMGGIIPIFGTANYAQKFQGRVTITADESTSTAYMELSSLRSEDTAVYYCAGSSGWSMSAFDIWGQGTMVTVSS
VL: SSELTQPPSVSVAPGKTARITCGGNNIGSKSVHWYQQKPGQAPVLVIYYDSDRPSGIPERFSGSNSGNTATLTISRVEAGDEADYYCQVWDSSSDHVVFGGGTKLTVL
notes: linker segment GLY112-LYS142; without the linker, the light chain is 100% and the heavy chain 93% identical to the Fab of PDB 2DD8; also called anti-human creatine kinase single chain antibody
binds: [1] | [2] | [3] | [4] | [5] | [6]
